Patent publication US20080280828A1 (NATURAL ENVIRONMENT RESEARCH COUNCIL, published 2008)

Columns and labels:
[1] = biological target: T1, human IgG Fc fragment (ICN) (human); assay: SPR (BIAcore 2000), human Fc immobilised, rIGBPMA 1 mg/ml as analyte
T1 construct: domain: Fc fragment; also called human Fc fragment; Fc (human) fragment

human IgE (Serotech) = human IgE (Serotech) (human); assay: SPR (BIAcore 2000), human IgE against guinea pig IgG on the same chip

B1: recombinant IGBPMA (rIGBPMA), N-terminal 26 amino acid truncated, C-terminal 6-His-tag, expressed in (other)
chain: YEVYTGRGVTITVDNTQYEIPADLEKIFQKPKGFSVGSLLVALQEKGIPVNVDEKTGVILGITIDKVRVPFPVSIDLRFKLDNQIYLIPRDLAKLITVLEKKGMPSKILFILYTRYGVVPVRDSNGIVVAISFNGKQFKVKPEPLTAVVILGQKFILPRDTRKMVEFVHSKQSHPEIGFIFLKALKSAGFMLINDDDGAMRSIQKGAQIIKLGFEIRIQVIYGKTTYHVPKDLMRLVKDVRSLGPQEIQSVMKQLKAFDVQVKKEGSKLTILFNSVRYEVDLKSGNVKGHHHHHH
notes: also called soluble rIGBPMA; Clone No. F6
In the case of B1, the “fold of binding over non-specific binding (BSA, F(ab)2)” value [1] is reported as 2 fold and the “fold of binding signal against IgG” value (human IgE (Serotech)) is reported as 2 fold.
